7 variants from the supplement of paper PMC12783771 can be followed below.

± gives the standard deviation of the averaged measurements.

To fix the notation:
B1: library; a variant is named by its letters at X, in order (parent)
chain: MNIQIGELAKRTACPVVTIRFYEQEGLLPPPGRSRGNFRLYGEEHVERLQFIRHCRSLDMPLSDVRTLLSYRKRPDQDCGEVXMLLDEHIRQVESRIGALLELKHHLVELREACSGARPAQSCGILQXLSXCVCXTRGTTAHXSD

Data set [1] covers variants of B1. As to the kind of experiment: sfGFP reporter fluorescence (15 h) (µM FITC); higher = higher leak. The note with it: library round: Round 2; ligand: none. Summed up:
(§1)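 Values are endpoint sfGFP fluorescence given as µM FITC equivalents. Fluorescence was read at 485/528 nm on a Synergy Neo2, and FITC standard curves were prepared in 50 mM sodium borate pH 8.5. Reactions of 1 μL combined BL21 Star (DE3) PANOx-SP extract, pPbrR-sfGFP reporter, 30 μg/mL GamS and linear PbrR templates (PCR-made, Echo-normalized to 5 nM), with 1 µM lead chloride, 30 µM zinc acetate or no metal, for 15 hr at 30 °C.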

Data set [2] covers variants of B1. As to the kind of experiment: sfGFP reporter fluorescence (15 h) (µM FITC); higher = stronger transcriptional activation. The note with it: library round: Round 2. Summed up: as §1

As to MNIQIGELAKRTACPVVTIRFYEQEGLLPPPGRSRGNFRLYGEEHVERLQFIRHCRSLDMPLSDVRTLLSYRKRPDQDCGEVNMLLDEHIRQVESRIGALLELRHHLVELREACSGARPAQSCGILQGLSSCVCATRGTTAHASD, the sfGFP reporter fluorescence in data set [1] is 0.0641 ± 0.0074; in data set [2] (ligand: 1 µM Pb), 0.097 ± 0.0024; in data set [2] (ligand: 30 µM Zn) it was 1.05 ± 0.14.
The corresponding values for MNIQIGELAKRTACPVVTIRFYEQEGLLPPPGRSRGNFRLYGEEHVERLQFIRHCRSLDMPLSDVRTLLSYRKRPDQDCGEVMMLLDEHIRQVESRIGALLELKHHLVELREACSGARPAQSCGILQGLSSCVCDTRGTTAHASD are 0.0442 ± 0.0017, 0.0841 ± 0.0012 and 0.0513 ± 0.00078.
Consider MNIQIGELAKRTACPVVTIRFYEQEGLLPPPGRSRGNFRLYGEEHVERLQFIRHCRSLDMPLSDVRTLLSYRKRPDQDCGEVNMLLDEHIRQVESRIGALLELKHHVVELREACSGARPAQSCGILQGLSSCVCATRGTTAHYSD, for which the figures for the sfGFP reporter fluorescence in data set [1], in data set [2] (ligand: 1 µM Pb) and in data set [2] (ligand: 30 µM Zn) were 0.12 ± 0.017, 0.238 ± 0.042 and 1.97 ± 0.17, respectively.
In the case of MNIQIGELAKRTACPVVTIRFYEQEGLLPPPGRSRGNFRLYGEEHVERLQFIRHCRSLDMPLSDVRTLLSYRKRPDQDCGEVTMLLDEHIRQVESRIGALLELKHHLLELREACSGARPAQSCGILQGLSSCVCATRGTTAHPSD, the sfGFP reporter fluorescence in data set [1] is 0.0457 ± 0.0012; in data set [2] (ligand: 1 µM Pb), 0.102 ± 0.0018; in data set [2] (ligand: 30 µM Zn), 0.475 ± 0.012.
On the same counts, the results for MNIQIGELAKRTACPVVTIRFYEQEGLLPPPGRSRGNFRLYGEEHVERLQFIRHCRSLDMPLSDVRTLLSYRKRPDQDCGEVTMLLDEHIRQVESRIGALLELKHHLVELREACSGARPAQSCGILQGLSSCVCDTRGTTAAPSD are 0.0642 ± 0.0043, 0.081 ± 0.0053 and 0.451 ± 0.086.
The corresponding values for MNIQIGELAKRTACPVVTIRFYEQEGLLPPPGRSRGNFRLYGEEHVERLQFIRHCRSLDMPLSDVRTLLSYRKRPDQDCGEVTMLLDEHLRQVESRIGALLELKHHLVELREACSGARPAQSCGILQGLSNCVCDTRGTTAHPSD are 0.0469 ± 0.0017, 0.0573 ± 0.0011 and 0.192 ± 0.014.
The corresponding values for MNIQIGELAKRTACPVVTIRFYEQEGLLPPPGRSRGNFRLYGEEHVERLQFIRHCRSLDMPLSDVRTLLSYRKRPDQDCGEVTMLLDEHIRQVESRIGALLELKHHLVELREACSGARPAQSCGILQGLSNCVCRTRGTTAHASD are 0.0608 ± 0.0044, 0.107 ± 0.018 and 0.663 ± 0.059.
